Source: patent publication US20030157054A1 (Merck KGaA, published 2003)

Experiments:
[1] = molecular target: soluble human EpCAM-murine Fc (KSA-muFc) (human) (UniProt P16422); assay: ELISA on plates coated with KSA-muFc; Group 1
[2] = molecular target: soluble human EpCAM-murine Fc (KSA-muFc) (human) (UniProt P16422); assay: ELISA on plates coated with KSA-muFc; Group 2, control to which the group is normalized
[3] = molecular target: T1, human epithelial cell adhesion molecule (EpCAM) on the cell surface (human, UniProt P16422 24-314); assay: 125I-labelled protein on EpCAM-positive PC-3 tumor cells, saturation binding with Scatchard analysis
T1 construct: whole, on cells; also called KS antigen; KSA
T1 sequence (looked up): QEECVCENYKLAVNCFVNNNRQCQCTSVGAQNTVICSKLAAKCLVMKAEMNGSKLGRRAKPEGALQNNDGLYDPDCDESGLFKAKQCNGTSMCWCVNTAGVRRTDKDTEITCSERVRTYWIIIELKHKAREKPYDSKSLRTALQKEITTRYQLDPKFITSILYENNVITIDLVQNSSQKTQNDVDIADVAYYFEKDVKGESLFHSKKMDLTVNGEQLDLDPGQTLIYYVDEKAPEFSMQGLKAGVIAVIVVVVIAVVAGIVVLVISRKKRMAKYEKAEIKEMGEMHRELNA
Experimental: Purified KS-1/4 antibodies were iodinated with ¹²⁵I using standard techniques, and increasing concentrations of labeled protein were incubated with the EpCAM-positive cell line PC-3. Saturation binding curves were generated and the dissociation constants were determined by Scatchard analysis.
In addition, the binding of iodinated VK8/VH7 and VK8/VH7-IL2 to EpCAM expressed on the surface of PC-3 tumor cells was compared to binding of iodinated VK0/VH0-IL2, using methods described in Example 1F. Within experimental error, essentially identical binding affinities were found for VK8/VH7 and VK0/VH0, and for VK8/VH7-IL2 and VK0/VH0-IL2.

[4] = molecular target: soluble human EpCAM-murine Fc (KSA-muFc) (human) (UniProt P16422); assay: ELISA on plates coated with KSA-muFc; Group 2, normalized to VK8/VH7
[5] = molecular target: soluble human EpCAM-murine Fc (KSA-muFc) (human) (UniProt P16422); assay: ELISA on plates coated with KSA-muFc; Group 3, normalized to VK8/VH7-IL2
[6] = molecular target: soluble human EpCAM-murine Fc (KSA-muFc) (human) (UniProt P16422); assay: SPR (Biacore), EpCAM-muFc coupled to CM5 chip, fusion protein in solution
[7] = molecular target: soluble human EpCAM-murine Fc (KSA-muFc) (human) (UniProt P16422); assay: EpCAM binding assay (ELISA on KSA-muFc)

VK0/VH0 (Hybridoma chKS-1/4) (antibody)
Relative binding (fold-increase in protein concentration required to reach an equivalent level of binding) [1]: 1 fold

B1: VK8/VH7 (Construct 3) (antibody, V domains shown)
VH: QIQLVQSGAEVKKPGETVKISCKASGYTFTNYGMNWVKQTPGKGLKWMGWINTYTGEPTYADDFKGRFAFSLETSTSTAFLQINNLRSEDTATYFCVRFISKGDYWGQGTSVTVSS
VL: EIVLTQSPATLSLSPGERVTLTCSASSSVSYMLWYQQKPGSSPKPWIFDTSNLASGFPARFSGSGSGTSYSLIISSMEAEDAATYYCHQRSGYPYTFGGGTKLEIK
notes: Intact antibody with human constant regions (pdHL7 vector); also called KS antibody (Construct 3)
Relative binding (fold-increase in protein concentration required to reach an equivalent level of binding) [2]: 1 fold
binding result [3]: binds

B2: VK0/VH1 (antibody, V domains shown)
VH: QIQLVQSGPELKKPGSSVKISCKASGYTFTNYGMNWVRQAPGKGLKWMGWINTYTGEPTYADDFKGRFTITAETSTSTLYLQLNNLRSEDTATYFCVRFMSKGDYWGQGTTVTVSS
VL: QILLTQSPAIMSASPGEKVTMTCSASSSVSYMLWYQQKPGSSPKPWIFDTSNLASGFPARFSGSGSGTSYSLIISSMEAEDAATYYCHQRSGYPYTFGGGTKLEIK
Relative binding (fold-increase in protein concentration required to reach an equivalent level of binding) [4]: 8 fold

B3: VK1/VH7 (antibody, V domains shown)
VH: QIQLVQSGAEVKKPGETVKISCKASGYTFTNYGMNWVKQTPGKGLKWMGWINTYTGEPTYADDFKGRFAFSLETSTSTAFLQINNLRSEDTATYFCVRFISKGDYWGQGTSVTVSS
VL: QIVLTQSPASLAVSPGQRATITCSASSSVSYILWYQQKPGQPPKPWIFDTSNLASGFPSRFSGSGSGTSYTLTINSLEAEDAATYYCHQRSGYPYTFGGGTKVEIK
Relative binding (fold-increase in protein concentration required to reach an equivalent level of binding) [4]: 1 fold

B4: VK1/VH1 (antibody, V domains shown)
VH: QIQLVQSGPELKKPGSSVKISCKASGYTFTNYGMNWVRQAPGKGLKWMGWINTYTGEPTYADDFKGRFTITAETSTSTLYLQLNNLRSEDTATYFCVRFMSKGDYWGQGTTVTVSS
VL: QIVLTQSPASLAVSPGQRATITCSASSSVSYILWYQQKPGQPPKPWIFDTSNLASGFPSRFSGSGSGTSYTLTINSLEAEDAATYYCHQRSGYPYTFGGGTKVEIK
Relative binding (fold-increase in protein concentration required to reach an equivalent level of binding) [4]: 2 fold

B5: VK1/VH2 (antibody, V domains shown)
VH: QIQLVQSGPELKKPGSSVKISCKASGYTFTNYGMNWVRQAPGKGLKWMGWINTYTGEPTYADDFKGRFTITAETSTSTLYLQLNNLRSEDTATYFCVRFISKGDYWGQGTTVTVSS
VL: QIVLTQSPASLAVSPGQRATITCSASSSVSYILWYQQKPGQPPKPWIFDTSNLASGFPSRFSGSGSGTSYTLTINSLEAEDAATYYCHQRSGYPYTFGGGTKVEIK
Relative binding (fold-increase in protein concentration required to reach an equivalent level of binding) [4]: 1 to 2 fold

B6: VK1/VH1-IL2 (protein)
VL: QIVLTQSPASLAVSPGQRATITCSASSSVSYILWYQQKPGQPPKPWIFDTSNLASGFPSRFSGSGSGTSYTLTINSLEAEDAATYYCHQRSGYPYTFGGGTKVEIK
VH: QIQLVQSGPELKKPGSSVKISCKASGYTFTNYGMNWVRQAPGKGLKWMGWINTYTGEPTYADDFKGRFTITAETSTSTLYLQLNNLRSEDTATYFCVRFMSKGDYWGQGTTVTVSS
Relative binding (fold-increase in protein concentration required to reach an equivalent level of binding) [4]: 5 fold
Relative binding (fold-increase in protein concentration required to reach an equivalent level of binding) [5]: 2 fold
koff [6]: 0.0022 s⁻¹
kon [6]: 280000 M⁻¹ s⁻¹

B7: VK1/VH2-IL2 (protein)
VL: QIVLTQSPASLAVSPGQRATITCSASSSVSYILWYQQKPGQPPKPWIFDTSNLASGFPSRFSGSGSGTSYTLTINSLEAEDAATYYCHQRSGYPYTFGGGTKVEIK
VH: QIQLVQSGPELKKPGSSVKISCKASGYTFTNYGMNWVRQAPGKGLKWMGWINTYTGEPTYADDFKGRFTITAETSTSTLYLQLNNLRSEDTATYFCVRFISKGDYWGQGTTVTVSS
Relative binding (fold-increase in protein concentration required to reach an equivalent level of binding) [4]: 1.5 fold
koff [6]: 0.00053 s⁻¹
kon [6]: 170000 M⁻¹ s⁻¹

B8: VK1/VH2.5-IL2 (protein)
VL: QIVLTQSPASLAVSPGQRATITCSASSSVSYILWYQQKPGQPPKPWIFDTSNLASGFPSRFSGSGSGTSYTLTINSLEAEDAATYYCHQRSGYPYTFGGGTKVEIK
VH: QIQLVQSGPELKKPGSSVKISCKASGYTFTNYGMNWVRQAPGKGLKWMGWINTYTGEPTYADDFKGRFTITAETSTSTLYLQLNNLRSEDTATYFCVRFISKGDYWGTGTTVTVSS
Relative binding (fold-increase in protein concentration required to reach an equivalent level of binding) [4]: 3 to 4 fold

B9: VK1/VH2.1-IL2 (protein)
VL: QIVLTQSPASLAVSPGQRATITCSASSSVSYILWYQQKPGQPPKPWIFDTSNLASGFPSRFSGSGSGTSYTLTINSLEAEDAATYYCHQRSGYPYTFGGGTKVEIK
VH: QIQLVQSGPELKKPGSSVKISCKASGYTFTNYGMNWVRQAPGKGLKWMGWINTYTGEPTYADDFKGRFTITAETSTSTLYLQLNNLRSEDTATYFCVRFIISKGDYWGQGTTVTVSS
Relative binding (fold-increase in protein concentration required to reach an equivalent level of binding) [5]: > 10 fold

B10: VK1/VH2.2-IL2 (protein)
VL: QIVLTQSPASLAVSPGQRATITCSASSSVSYILWYQQKPGQPPKPWIFDTSNLASGFPSRFSGSGSGTSYTLTINSLEAEDAATYYCHQRSGYPYTFGGGTKVEIK
VH: QIQLVQSGPELKKPGSSVKISCKASGYTFTNYGMNWVRQAPGKGLKWMGWINTYTGEPTYADDFKGRFTITAETSTSTLYLQLNNLRSEDTATYFCVRFIVSKGDYWGQGTTVTVSS
Relative binding (fold-increase in protein concentration required to reach an equivalent level of binding) [5]: > 10 fold

B11: VK1/VH2.3-IL2 (protein)
VL: QIVLTQSPASLAVSPGQRATITCSASSSVSYILWYQQKPGQPPKPWIFDTSNLASGFPSRFSGSGSGTSYTLTINSLEAEDAATYYCHQRSGYPYTFGGGTKVEIK
VH: QIQLVQSGPELKKPGSSVKISCKASGYTFTNYGMNWVRQAPGKGLKWMGWINTYTGEPTYADDFKGRFTITAETSTSTLYLQLNNLRSEDTATYFCVRFISAKGDYWGQGTTVTVSS
Relative binding (fold-increase in protein concentration required to reach an equivalent level of binding) [5]: 7 fold

B12: VK1/VH2.4-IL2 (protein)
VL: QIVLTQSPASLAVSPGQRATITCSASSSVSYILWYQQKPGQPPKPWIFDTSNLASGFPSRFSGSGSGTSYTLTINSLEAEDAATYYCHQRSGYPYTFGGGTKVEIK
VH: QIQLVQSGPELKKPGSSVKISCKASGYTFTNYGMNWVRQAPGKGLKWMGWINTYTGEPTYADDFKGRFTITAETSTSTLYLQLNNLRSEDTATYFCVRFISKTGDYWGQGTTVTVSS
Relative binding (fold-increase in protein concentration required to reach an equivalent level of binding) [5]: 3 fold

B13: VK6/VH6 (Construct 1) (antibody, V domains shown)
VH: QVQLVQSGAEVKKPGESVKISCKASGYTFTNYGMNWVRQAPGKGLEWMGWINTYTGEPTYAQKFQGRVTISLDTSTSTAYLQLSSLRAEDTAVYFCVRFISKGDYWGQGTSVTVSS
VL: EIVLTQSPATLSLSPGERVTLTCSASSSVSYMLWYQQKPGQAPKLLIFDTSNLASGIPARFSGSGSGTDYTLTISSLEPEDFAVYYCHQRSGYPYTFGGGTKLEIK
fold less active in an EpCAM binding assay [7]: > 10 fold

B14: VK0/VH'369 ('369 chKS-1/4) (antibody, V domains shown)
VH: QIQLVQSGPELKKPGETVKISCKASGYTFTNYGMNWVKQTPGKGLKWMGWINTYTGEPTYADDFKGRFAFSLETSASTAFLQIQQPQNMRTMATYFCVRFISKGDYWGQGTSVTVSS
VL: QILLTQSPAIMSASPGEKVTMTCSASSSVSYMLWYQQKPGSSPKPWIFDTSNLASGFPARFSGSGSGTSYSLIISSMEAEDAATYYCHQRSGYPYTFGGGTKLEIK
Relative binding (fold-increase in protein concentration required to reach an equivalent level of binding) [1]: > 30 fold
